For 1 molecule, Recovery and Calculated concentration results are on record in patent US10788489.

Experiment [1] concerns the target anti-histidine-tag polyclonal antibody (Bethyl Laboratories, Inc., USA). In words: competitive immunochromatography, 1.1 µg/mL FBA added; calculated against added concentration, ATG-8 standard curve as reference.
Experiment [2] shares this target. In words: competitive immunochromatography, 10 µg/mL FBA added; calculated against added concentration, ATG-8 standard curve as reference.
For experiment [3] the target is unchanged. Put plainly: competitive immunochromatography, 3.3 µg/mL FBA added; concentration read from the ATG-8 standard curve.
Experiment [4] has the same target. In words: competitive immunochromatography, 30 µg/mL FBA added; calculated against added concentration, ATG-8 standard curve as reference.
Experiment [5] shares this target. Put plainly: competitive immunochromatography, 3.3 µg/mL FBA added; calculated against added concentration, ATG-8 standard curve as reference.
For experiment [6] the target is unchanged. In words: competitive immunochromatography, 30 µg/mL FBA added; concentration read from the ATG-8 standard curve.
For experiment [7] the target is unchanged. In words: competitive immunochromatography, 10 µg/mL FBA added; concentration read from the ATG-8 standard curve.
Experiment [8] has the same target. Put plainly: competitive immunochromatography, 1.1 µg/mL FBA added; concentration read from the ATG-8 standard curve.
Experiment [9] has the same target. In words: competitive immunochromatography, 0.37 µg/mL FBA added; calculated against added concentration, ATG-8 standard curve as reference.
Experiment [10] shares this target. Put plainly: competitive immunochromatography, 0.37 µg/mL FBA added; concentration read from the ATG-8 standard curve.

B1: fructose bisphosphate aldolase comprising histidine-tag (Cusabio, USA) (enzyme, UniProt P04075 2-364, looked up, species assumed)
Fructose-bisphosphate aldolase A: PYQYPALTPEQKKELSDIAHRIVAPGKGILAADESTGSIAKRLQSIGTENTEENRRFYRQLLLTADDRVNPCIGGVILFHETLYQKADDGRPFPQVIKSKGGVVGIKVDKGVVPLAGTNGETTTQGLDGLSERCAQYKKDGADFAKWRCVLKIGEHTPSALAIMENANVLARYASICQQNGIVPIVEPEILPDGDHDLKRCQYVTEKVLAAVYKALSDHHIYLEGTLLKPNMVTPGHACTQKFSHEEIAMATVTALRRTVPPAVTGITFLSGGQSEEEASINLNAINKCPLLKPWALTFSYGRALQASALKAWGGKKENLKAAQEEYVKRALANSLACQGKYTPSGQAGAAASESLFVSNHAY
modifications: His-tag
For the molecule B1, the Recovery was 0.13 in experiment [1]; 0.18 in experiment [2]; 0.39 in experiment [4]; 0.15 in experiment [5]; 0.15 in [9]. Also, the Calculated concentration in [3] is 0.51 µg/mL; in [6], 11.7 µg/mL; in [7] it was 1.81 µg/mL; in [8], 0.14 µg/mL; in experiment [10], 0.056 µg/mL.
